# Measured values as given in patent US6988446B2, “Purified nitric oxide synthase” (priority 1996, dated 2006).
# pKi: −log10 of the molar value. Where two headings read alike, the source gives them in different places. Marks after values point to notes of the source that are not given here. Non-standard residues stand in square brackets, D forms with d. No end group written: not given here. 2Thi = N[C@@H](Cc1cccs1)C(=O)O
# Tests used:
# [1] = biological target: T1, nNOS-II (Rattus norvegicus, UniProt P29476); assay: Standard NOS enzyme assay (oxyhemoglobin to methemoglobin), peptides as substrates, initial velocity; format: biochemical; set-up: decrease of activity as substrate: concentration or dose not given beside the values; details: for relative activity as substrate for nNOS-II (in words): comparator (arginine or BK)
# T1 sequence (P29476 whole entry): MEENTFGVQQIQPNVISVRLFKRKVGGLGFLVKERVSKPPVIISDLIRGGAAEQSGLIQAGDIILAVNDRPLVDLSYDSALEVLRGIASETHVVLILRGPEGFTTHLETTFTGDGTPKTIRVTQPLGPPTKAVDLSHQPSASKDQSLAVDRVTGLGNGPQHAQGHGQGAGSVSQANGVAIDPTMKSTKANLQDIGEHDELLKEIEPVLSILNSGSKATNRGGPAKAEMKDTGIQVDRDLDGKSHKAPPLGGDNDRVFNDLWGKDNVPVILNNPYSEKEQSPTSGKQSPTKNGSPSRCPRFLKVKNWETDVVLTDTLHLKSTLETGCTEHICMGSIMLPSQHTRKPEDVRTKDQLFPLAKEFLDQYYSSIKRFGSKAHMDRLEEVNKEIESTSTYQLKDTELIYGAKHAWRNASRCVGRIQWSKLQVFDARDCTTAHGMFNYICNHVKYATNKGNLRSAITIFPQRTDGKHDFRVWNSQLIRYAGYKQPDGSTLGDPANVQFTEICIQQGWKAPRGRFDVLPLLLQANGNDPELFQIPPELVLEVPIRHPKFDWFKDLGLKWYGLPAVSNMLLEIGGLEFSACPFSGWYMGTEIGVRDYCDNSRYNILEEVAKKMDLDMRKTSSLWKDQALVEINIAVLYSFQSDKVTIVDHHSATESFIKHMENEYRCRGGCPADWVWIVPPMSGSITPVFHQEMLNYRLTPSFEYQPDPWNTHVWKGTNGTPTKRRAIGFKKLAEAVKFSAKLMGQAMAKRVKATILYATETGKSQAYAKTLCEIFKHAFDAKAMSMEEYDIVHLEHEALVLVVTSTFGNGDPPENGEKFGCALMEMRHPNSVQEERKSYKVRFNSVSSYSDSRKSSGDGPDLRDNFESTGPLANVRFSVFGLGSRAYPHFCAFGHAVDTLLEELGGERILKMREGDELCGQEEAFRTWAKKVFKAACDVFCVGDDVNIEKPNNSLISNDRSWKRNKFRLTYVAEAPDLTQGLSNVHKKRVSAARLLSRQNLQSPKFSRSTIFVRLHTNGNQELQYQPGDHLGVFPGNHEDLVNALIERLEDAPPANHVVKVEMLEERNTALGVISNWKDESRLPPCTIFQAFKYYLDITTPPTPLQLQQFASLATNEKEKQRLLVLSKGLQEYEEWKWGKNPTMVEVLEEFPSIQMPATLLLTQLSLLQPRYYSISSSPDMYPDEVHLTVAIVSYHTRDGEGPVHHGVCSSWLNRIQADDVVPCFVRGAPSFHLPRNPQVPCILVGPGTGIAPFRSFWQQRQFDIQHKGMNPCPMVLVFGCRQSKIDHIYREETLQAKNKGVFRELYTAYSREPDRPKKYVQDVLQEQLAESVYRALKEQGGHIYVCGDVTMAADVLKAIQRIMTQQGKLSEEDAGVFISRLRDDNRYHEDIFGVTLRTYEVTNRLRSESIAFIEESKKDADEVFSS
# Experimental: (§1) NOS Activity Assay: NOS activity was determined spectrophotometrically by the rapid and quantitative oxidation of oxyhemoglobin to methemoglobin (Feelish et al., Eur. J. Pharmacol. 139:19-30 (1987); Olken et al., Biochem. Biophys. Res. Commun. 177:828-833 (1991)).
# (§2) Thus, reaction mixtures for NOS assays containing 50 mM Tris-HCl buffer (pH 7.5), were optimized to contain 4 μM oxyhemoglobin, 100 μM NADPH, 1 mM CaCl2, 10 μM FAD, 10 μM FMN, 20 μM BH4, 150 μM DTT, 100 μM BK or L-arginine and 0.1-3 μg enzyme in a final volume of 0.5 mL.
# (§3) Thus, calmodulin (10 μg/mL) was added to the reaction mixtures when L-arginine was used as substrate.
# (§4) NOS activity assay. NOS activity was determined spectrophotometrically by the rapid and quantitative oxidation of oxyhemoglobin to methemoglobin (10,11). Optimized reaction mixtures for NOS assays contained 50 mM Tris-HCl buffer (pH 7.5), and were optimized to contain 4 μM oxyhemoglobin, 100 μM NADPH, 1 mM CaCl2, 10 μM FAD, 10 μM FMN, 20 μM BH. 150 μM DTT, 100 μM BK or L-arginine and 0.1-3 μg enzyme in a final volume of 0.5 ml. Calmodulin (10 μg/ml) was added to the reaction mixtures when L-arginine was used as substrate.
# [2] = biological target: T1, nNOS-II; assay: Kinetic determinations (KM, Vmax, Ki) with the standard enzyme assay; format: biochemical
# Experimental: as §1, §2, §3
# Kinetic data were calculated by fitting experimental data to the EZ-FIT program (Perrella, Anal. Biochem. 174.437-447 (1988)).
# as §4
# Kinetic determinations. Kinetic experiments were conducted using the standard enzyme assay described above. […] Kinetic data were calculated by fitting experimental data to EZ-FIT program (12).
# [3] = biological target: nNOS (Rattus norvegicus, UniProt P29476); details: cited from earlier work
# [4] = Table 3, substrate 100 μM (poly-arginine 5 μg/ml), purified nNOS-II 0.2 μg, activity for arginine = 100%, means of three measurements
# [5] = substrate 100 μM (poly-arginine 5 μg/ml), purified nNOS-II 0.2 μg, activity for arginine = 100%, means of three measurements
compound,measurement,setting,value
N=C(N)NCCC[C@H](N)C(=O)O [L-arginine],Relative Activity (%),[1],100^c %
same,Relative activity (%),[1],100^c %
same,apparent Vmax,"[2]; substrate of nNOS-II, calmodulin added when L-arginine is substrate",0.85 μmol/min/mg protein
same,Km,"[3]; previously described nNOS (Bredt et al.), read-out: reported KM for nNOS",2 µM
same,apparent Vmax for nNOS,"[3]; previously described nNOS, L-arginine as substrate",0.96 μmol/min/mg protein
Arg-Pro-Pro-Gly-Phe (RPPGF; rat) [BK fragment 1-5],Relative activity (%),[1]; [4],61%
same,Relative Activity (%),[1]; [5],61%
same,activity of that for BK,"[1]; text of Example 2, relative to BK",about 50%
Arg-Pro-Pro-Gly-Phe-Ser-Pro-Phe (APPGFSPF; rat) [Des-Arg^9-BK],Relative activity (%),[1]; [4],180%
same,Relative Activity (%),[1]; [5],180%
same,relative activity as substrate for nNOS-II (in words),[1]; text of Example 2,about one-fold higher than that of arginine
ISRPPGFSPFR [Ile-Ser-BK],Relative activity (%),[1]; [4],110%
same,Relative Activity (%),[1]; [5],110%
KPPGFSPFR [[Lys^1]-BK],Relative activity (%),[1]; [4],113%
same,Relative Activity (%),[1]; [5],113%
Lys-Arg-Pro-Pro-Gly-Phe-Ser-Pro-Phe-Arg [Lys-BK],Relative Activity (%),[1],116%
same,Relative activity (%),[1],116%
same,relative activity as substrate for nNOS-II (in words),[1]; text of Example 2,almost the same activity
Met-Lys-Arg-Pro-Pro-Gly-Phe-Ser-Pro-Phe-Arg [Met-Lys-BK],Relative Activity (%),[1],0%
same,Relative activity (%),[1],0%
same,relative activity as substrate for nNOS-II (in words),[1]; text of Example 2,no activity at all
PPGFSP [BK fragment 2-7],Relative activity (%),[1]; [4],0%
same,Relative Activity (%),[1]; [5],0%
PPGFSPFR [Des-Arg^1-BK],Relative activity (%),[1]; [4],94%
same,Relative Activity (%),[1]; [5],94%
same,relative activity as substrate for nNOS-II (in words),[1]; text of Example 2,activity similar to that of arginine
Poly-arginine,Relative Activity (%),[1],30%
same,Relative activity (%),[1],30%
same,activity for nNOS-II comparing to that of arginine,[1],30%
RPPGFSP [BK fragment 1-7],Relative activity (%),[1]; [4],80%
same,Relative Activity (%),[1]; [5],80%
same,decrease of activity as substrate,"[1]; text of Example 2, comparator not stated",30%
RPPGFSPFR [BK],Relative activity (%),[1]; [4],125%
same,Relative Activity (%),[1]; [5],125%
"[N-adamantaneacetyl-D-Arg^0, Hyp^3, Thi^5,8, D-Phe^7]-BK",pKi,"[2]; nNOS-II with BK as substrate, competitive inhibition, read-out: apparent Ki",5.60
"[Thi^5,8, D-Phe^7]-BK (RPPG[2Thi]S[dF][2Thi]R)",effect on nNOS-II activity,[2]; concentration range of 0.5-100 μM,no effect
same,effect on nNOS-II activity,[2]; concentration range of 0.5-100 mM,no effect
